These results are taken from patent publication US20180011102A1 (University of Texas, published 2018).

First the molecules themselves.
T1: SFB-PGK1 Δ1-57 (human, UniProt P00558 58-417)
T1 construct: also called PGK1 Δ1-57 mutant; not shown: C-terminal SFB (S-Flag-Biotin) tag and any linker or added start Met of the pcDNA6/SFB construct
T1 sequence: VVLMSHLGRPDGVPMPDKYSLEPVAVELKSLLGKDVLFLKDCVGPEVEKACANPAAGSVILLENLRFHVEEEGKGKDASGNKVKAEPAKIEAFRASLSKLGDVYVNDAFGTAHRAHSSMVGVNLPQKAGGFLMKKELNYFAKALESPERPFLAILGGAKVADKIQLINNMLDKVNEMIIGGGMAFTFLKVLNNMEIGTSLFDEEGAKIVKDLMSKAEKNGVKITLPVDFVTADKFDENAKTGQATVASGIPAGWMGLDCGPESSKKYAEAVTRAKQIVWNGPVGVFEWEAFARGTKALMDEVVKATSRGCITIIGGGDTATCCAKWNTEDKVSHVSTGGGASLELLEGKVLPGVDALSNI

T2: SFB-PGK1 R39/K41A (human, UniProt P00558 1-417)
T2 construct: not shown: SFB (S-Flag-Biotin) tag, pcDNA6/SFB vector
T2 sequence (looked up): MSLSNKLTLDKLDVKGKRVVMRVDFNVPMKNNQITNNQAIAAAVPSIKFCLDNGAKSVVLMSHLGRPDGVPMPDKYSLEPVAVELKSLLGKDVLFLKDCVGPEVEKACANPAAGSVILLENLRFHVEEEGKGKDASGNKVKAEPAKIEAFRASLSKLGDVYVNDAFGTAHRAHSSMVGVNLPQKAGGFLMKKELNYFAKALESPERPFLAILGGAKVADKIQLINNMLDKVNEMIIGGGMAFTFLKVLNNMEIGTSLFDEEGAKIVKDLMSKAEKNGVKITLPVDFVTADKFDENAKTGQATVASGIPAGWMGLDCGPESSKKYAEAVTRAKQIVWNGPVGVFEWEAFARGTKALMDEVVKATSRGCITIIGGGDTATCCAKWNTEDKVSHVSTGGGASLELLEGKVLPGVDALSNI

B1: endogenous TOM20 of U87 cells (receptor, human, UniProt Q15388 1-145, looked up)
chain: MVGRNSAIAAGVCGALFIGYCIYFDRKRRSDPNFKNRLRERRKKQKLAKERAGLSKLPDLKDAEAVQKFFLEEIQLGEELLAQGEYEKGVDHLTNAIAVCGQPQQLLQVLQQTLPPPVFQMLLTKLPTISQRIVSAQSLAEDDVE
B2: SFB-PDHK4 expressed in U87 cells (enzyme)
chain: not shown
notes: not shown: SFB tag, pcDNA6/SFB vector
B3: SFB-PDHK3 expressed in U87 cells (enzyme)
chain: not shown
notes: as for B2
B4: endogenous PGK1 (phosphoglycerate kinase 1) of U87 human GBM cells (enzyme)
chain: SLSNKLTLDKLDVKGKRVVMRVDFNVPMKNNQITNNQRIKAAVPSIKFCLDNGAKSVVLMSHLGRPDGVPMPDKYSLEPVAVELKSLLGKDVLFLKDCVGPEVEKACANPAAGSVILLENLRFHVEEEGKGKDASGNKVKAEPAKIEAFRASLSKLGDVYVNDAFGTAHRAHSSMVGVNLPQKAGGFLMKKELNYFAKALESPERPFLAILGGAKVADKIQLINNMLDKVNEMIIGGGMAFTFLKVLNNMEIGTSLFDEEGAKIVKDLMSKAEKNGVKITLPVDFVTADKFDENAKTGQATVASGIPAGWMGLDCGPESSKKYAEAVTRAKQIVWNGPVGVFEWEAFARGTKALMDEVVKATSRGCITIIGGGDTATCCAKWNTEDKVSHVSTGGGASLELLEGKVLPGVDALSNI
notes: Endogenous protein from cell lysates
B5: endogenous PDHK1 of U87 cell mitochondria (enzyme)
chain: not shown
notes: also called pyruvate dehydrogenase kinase 1

One experiment deals with T1, SFB-PGK1 Δ1-57. The experiment in a line: streptavidin pull-down from U87 cells (FIG. 3D).
Another experiment addresses T2, SFB-PGK1 R39/K41A. The experiment in a line: streptavidin pull-down from U87 cells (FIG. 3E).
For experiment [1], the target named is B4. The experiment in a line: streptavidin pull-down from mitochondrial fractions of U87 cells (FIG. 14C).
Experimental: (§1) Immunoblotting analyses were performed with the indicated antibodies. […] Immunoblotting analyses were performed with the indicated antibodies. […] Immunoblotting analyses were performed with the indicated antibodies. […] ATP concentrations in mitoplast isolated from U87 or U251 cells treated with or without hypoxia for 6 h were measured. […] Mitochondria fractions of U87 cells treated with or without hypoxia for 6 h were immunodepleted with or without an anti-PDHK1 pT338 antibody. Immunoblotting analyses were performed with the indicated antibodies. […] U87 and U251 cells expressing PGK1 shRNA were reconstituted to express WT rPGK1 or rPGK1 T378P. Immunoblotting analyses were performed with the indicated antibodies. FIGS. 14M-N. U87 and U251 cells with PGK1 shRNA and with reconstituted expression of WT rPGK1 or rPGK1 T378P were stimulated with or without hypoxia for 6 h. Mitochondria fractions were prepared. Immunoblotting analyses were performed with the indicated antibodies. […] Data represent the means±SD of three independent experiments. Immunoblotting analyses were performed with an anti-PGK1 antibody. […] U87 cells were stimulated with or without hypoxia for 6 h. Immunoblotting analyses of mitochondrial lysates were performed with the indicated antibodies.
In experiment [2] the target is SFB-PDHK2 expressed in U87 cells (human, UniProt Q15119 1-407). Described as above.
Experimental: as §1
For experiment [3], the target named is B4. The experiment in a line: PGK1 immunoprecipitated from mitochondria of U87 cells, anti-PDHK1 immunoblot (FIG. 4B). A general note: A western blot detects proteins with antibodies after separation by electrophoresis.

Experimental for SFB-PGK1 R39/K41A: (§2) FIGS. 3A-G. Immunoblotting and immunoprecipitation analyses were carried out using antibodies against the indicated proteins. […] FIGS. 3D-E. U87 cells expressing the indicated SFB-tagged PGK1 proteins were treated with or without hypoxia for 6 h. Streptavidin agarose beads were used to pull down SFB-tagged proteins.
Experimental for SFB-PGK1 Δ1-57: as §2

Turning to B1, the binding result in the experiment with SFB-PGK1 Δ1-57 and in the experiment with SFB-PGK1 R39/K41A was “no binding” each time.

For the molecule B2, in experiment [1], the binding result was “no binding”.

B3: the binding result in experiment [1] is given as “no binding”.

Take B4: the binding result in experiment [2] is “no binding”.

B5: the binding result in experiment [3] is “binds”.
